Columns and labels:
[1] = system: SNAP-β2-adrenergic receptor; assay: SNAP-β2-AR internalization by confocal microscopy; assay type: cell-based; conditions: HEK293; isoproterenol 10 µM, 15 min
Description: SNAP-FZD6 and SNAP-β2-AR were imaged in living cells using a Zeiss LSM710 equipped with a 40×, 1.2 NA C-Apochromat objective. The cell-impermeable SNAP substrate SNAP-Surface 549 (New England Biolabs) was added (1:1000, 15 min), washed twice in BE buffer and imaged using the 561 nm laser line. SNAP-FZD6 and SNAP-β2-AR were stimulated with 300 ng ml^−1 WNT-5A and 10 µM isoproterenol, respectively, and fluorescence was monitored over time.

[2] = system: ERK1/2 phosphorylation in HEK293 cells; assay: P-ERK1/2 immunoblot, HEK293 cells expressing SNAP-FZD6 constructs; assay type: cell-based
Description: Fig. 6 Relationship between FZD6 dimerization and phosphorylation of ERK1/2. a Mouse lung epithelial (MLE-12) cells were stimulated with WNT-5A (300 ng ml^−1) for 0, 2.5, 5, 10, 20 min. Cell lysates were analyzed for P-ERK1/2 and β-actin by immunoblotting. Additional information in Supplementary Fig. 6. b Bar graph summarizes three independent experiments. Densitometry data were normalized to the unstimulated control. […] Additional information in Supplementary Fig. 6. SNAP-FZD6 wt- and SNAP-FZD6 dimer mutant-induced ERK1/2 phosphorylation in the absence e and presence f of the porcupine inhibitor C59 (5 µM, overnight) were probed by immunoblotting for the SNAP-tag, P-ERK1/2, total ERK1/2 and β-actin. g The bar graph summarizes densitometry data of P-ERK1/2 normalized to total ERK1/2 from 6 different experiments. P = 0.0005; F (2, 15) = 13.08. ***P < 0.001. Empty vector transfection was used as mock. h Increasing amounts of plasmid of either SNAP-FZD6 wt or SNAP-FZD6 dimer mutant in the presence of C59 show a dose-dependent increase in P-ERK1/2 only with the dimer mutant. Data from three independent experiments for the dimer mutant were fit to a linear least-squares model (slope = 0.40 ± 0.10; R ^2 = 0.5943) and this line is shown superimposed. […] This dissociation-dependent activation can be evoked by agonist (WNT^high) or mutation of the dimer interface (symbolized by red stars). WNT^low conditions can be achieved in the presence of C59, which reduces FZD6 wt signaling
MLE-12 or HEK293 cells (ATCC) were plated in a 24- or 48-well plate at a density of 100,000 or 50,000 cells/well, respectively. After 24 h, cells were transfected using Lipofectamine 2000 according to the manufacturer’s instructions. Cells were stimulated (24 h post-transfection) with 300 ng ml^−1 recombinant carrier-free WNT-5A (CF WNT-5A; R&D Systems). Stimulation was stopped by the addition of lysis buffer (1% NP-40, 150 mM NaCl, 50 mM Tris/HCl pH 8). Lysates were sonicated and analyzed by 7.5 or 10% Mini-PROTEAN TGX precast polyacrylamide gels (Bio-Rad) and transferred to PVDF membranes using the Trans-Blot Turbo system (Bio-Rad). After blocking with 5% milk or BSA in TBS-T, membranes were incubated with primary antibodies in blocking buffer: mouse anti-β-actin (1:30,000; Sigma #A5441), rabbit anti-FZD6 (1:1000; NovusBio #NBP1-00830), rabbit anti-Phospho-p44/42 MAPK (ERK1/2) (Thr202/Tyr204) (1:1000; Cell Signaling Technology #9101 L), rabbit anti-p44/42 MAPK (ERK1/2) (1:1000; Cell Signaling Technology #9102), rabbit anti-Phospho-C-RAF (Ser338) (1:1000; Cell Signaling Technology #56A6), rabbit anti-SNAP tag (1:1000, New England Biolabs #P9310S), and rabbit anti-HA (1:4000, abcam #ab9110) overnight at 4 °C. Proteins were detected with horseradish peroxidase-conjugated secondary antibodies (goat anti-rabbit and goat anti-mouse (Pierce)) and Clarity Western ECL Blotting Substrate (Bio-Rad). All uncropped immunoblots can be found in the Supplementary Information.

DVL2-GFP = assay: dcFRAP with chemical surface crosslinking, FZD6 dimer mutant/DVL2-GFP; assay type: cell-based; conditions: inactive state
Description: For dual color FRAP experiments, cells grown in four compartment 35 mm glass bottom dishes were washed three times with BE buffer[19] (150 mM NaCl, 2.5 mM KCl, 10 mM HEPES, 12 mM glucose, 0.5 mM CaCl2, and 0.5 mM MgCl2). Then, the cells were incubated at RT for 30 min with biotin-conjugated goat polyclonal anti-V5 antibody (Bethyl) diluted 1:100 in BE buffer supplemented with 2.5% bovine serum albumin. For antibody-mediated cross-linking, avidin was added and incubated for 15 min and washed two times with BE buffer before the experiments were performed. […] Fluorescence was measured pre- and post-bleach using low-intensity illumination for a total time period of 100 s. Average pixel intensity was measured using the ZEN2013 software, corrected for background fluctuations and bleaching artifacts and normalized to pre-bleached intensity. The recovered mobile fraction (F m) was calculated as follows: F m = (I P–I 0)/(I I–I 0), where I I is the initial intensity measured prior to bleaching, I 0 is the immediate fluorescence intensity post-bleaching and I P is intensity value post-bleaching. The mobile fraction was defined by the average of the fluorescence recovery assessed between time 85–101 s (including pre-bleach measurements). […]

FZD6–FZD6 dimer = assay: dcFRAP of V5-FZD6-mCherry/FZD6-GFP (FZD6 dimerization); assay type: cell-based, human; conditions: HEK293; GFP-tagged mutant with wt V5-FZD6-mCherry; anti-V5/avidin crosslinking
Summary of the method: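 Live cells co-expressing V5-FZD6-mCherry and FZD6-GFP, surface V5 tag crosslinked with biotin-anti-V5 plus avidin in BE buffer at RT. Membrane areas photobleached, recovery imaged (488/561 nm) over 100 s; mobile fraction from background/bleach-corrected, pre-bleach-normalized intensity at 85-101 s. Cells with <40% crosslink-induced mobility reduction excluded.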

[3] = system: subcellular localization in HEK293 cells; assay: co-localization of FZD6-R511C with FZD6 constructs; assay type: cell-based, human; conditions: FZD6-R511C with FZD6-mCherry, or FZD6 dimer mutant with FZD6-R511C
Gαi1-GFP = conditions: cited from earlier work

Molecule | internalization of SNAP-β2-adrenergic receptor [1] | P-ERK1/2 induction in presence of C59 ([2]; HEK293, C59 5 µM overnight) | slope of P-ERK1/2 vs plasmid amount ([2]; HEK293, C59, linear least-squares, R^2 = 0.5943, three independent experiments) | effect of overexpression on basal P-ERK1/2 without C59 ([2]; serum-starved HEK293, no C59) | assembly with DVL (DVL2-GFP) | dimerization by CL-induced decrease of mobile fraction (FZD6–FZD6 dimer) | subcellular localization on co-expression [3] | assembly with Gαi1/Gαq proteins (Gαi1-GFP)
CC(C)NCC(O)c1ccc(O)c(O)c1 (stereo not drawn) [isoproterenol] | appearance of numerous endosome-like structures after 15 min |  |  |  |  |  |  | 
FZD6 dimer mutant: D365A, R368A, Y369A triple mutant of FZD6 (protein, left off: GFP, C-terminal, kept) HSLFTCEPITVPRCMKMAYNMTFFPNLMGHYDQSIAAVEMEHFLPLANLECSPNIETFLCKAFVPTCIEQIHVVPPCRKLCEKVYSDCKKLIDTFGIRWPEELECDRLQYCDETVPVTFDPHTEFLGPQKKTEQVQRDIGFWCPRHLKTSGGQGYKFLGIDQCAPPCPNMYFKSDELEFAKSFIGTVSIFCLCATLFTFLTFLIDVRRFRYPERPIIYYSVCYSIVSLMYFIGFLLGDSTACNKADEKLELGDTVVLGSQNKACTVLFMLLYFFTMAGTVWWVILTITWFLAAGRKWSCEAIEQKAVWFHAVAWGTPGFLTVMLLAMNKVEGDNISGVCFVGLYDLAASAAFVLLPLCLCVFVGLSLLLAGIISLNHVRQVIQHDGRNQEKLKKFMIRIGVFSGLYLVPLVTLLGCYVYEQVNRITWEITWVSDHCRQYHIPCPYQAKAKARPELALFMIKYLMTLIVGISAVFWVGSKKTCTEWAGFFKRNRKRDPISESRRVLQESCEFFLKHNSKVKHKKKHYKPSSHKLKVISKSMGTSTGATANHGTSAVAITSHDYLGQETLTEIQTSPETSMREVKADGASTPRLREQDCGEPASPAASISRLSGEQVDGKGQAGSVSESARSEGRISPKSDITDTGLAQSNNLQVPSSSEPSSLKGSTSLLVHPVSGVRKEQGGGCHSDT |  | maintained its ability to induce ERK1/2 phosphorylation | 0.40 ± 0.10 | increased basal P-ERK1/2 | retained the ability to interact with the scaffold protein DVL | did not result in a decrease of the mobile fraction of FZD6-GFP | maintained cell surface localization | 
FZD6-R511C: DVL-biased FZD6 nail dysplasia mutant (protein, UniProt O60353 19-706, looked up, variant R511C, GFP or mCherry tag, DVL-biased FZD6 nail dysplasia mutant) Frizzled-6: HSLFTCEPITVPRCMKMAYNMTFFPNLMGHYDQSIAAVEMEHFLPLANLECSPNIETFLCKAFVPTCIEQIHVVPPCRKLCEKVYSDCKKLIDTFGIRWPEELECDRLQYCDETVPVTFDPHTEFLGPQKKTEQVQRDIGFWCPRHLKTSGGQGYKFLGIDQCAPPCPNMYFKSDELEFAKSFIGTVSIFCLCATLFTFLTFLIDVRRFRYPERPIIYYSVCYSIVSLMYFIGFLLGDSTACNKADEKLELGDTVVLGSQNKACTVLFMLLYFFTMAGTVWWVILTITWFLAAGRKWSCEAIEQKAVWFHAVAWGTPGFLTVMLLAMNKVEGDNISGVCFVGLYDLDASRYFVLLPLCLCVFVGLSLLLAGIISLNHVRQVIQHDGRNQEKLKKFMIRIGVFSGLYLVPLVTLLGCYVYEQVNRITWEITWVSDHCRQYHIPCPYQAKAKARPELALFMIKYLMTLIVGISAVFWVGSKKTCTEWAGFFKRNCKRDPISESRRVLQESCEFFLKHNSKVKHKKKHYKPSSHKLKVISKSMGTSTGATANHGTSAVAITSHDYLGQETLTEIQTSPETSMREVKADGASTPRLREQDCGEPASPAASISRLSGEQVDGKGQAGSVSESARSEGRISPKSDITDTGLAQSNNLQVPSSSEPSSLKGSTSLLVHPVSGVRKEQGGGCHSDT |  |  |  |  |  |  | predominant intracellular localization of both constructs | does not assemble with Gαi1/Gαq proteins
